{
  "source": "the Human Domainome abundance scans (Beltran et al. 2025)",
  "parents": {"B1": {"name": "Protein S100-G, residues 1 to 79; numbered along this chain, P02633 (parent)", "chain": "MSAKKSPEELKGIFEKYAAKEGDPNQLSKEELKLLLQTEFPSLLKGPSTLDELFEELDKNGDGEVSFEEFQVLVKKISQ"}},
  "note": "± gives the uncertainty stated by the source.",
  "data": [
    {"variants_of": "B1", "assay": "abundance fitness (aPCA) (normalised: wild type 0, dead -1); higher = more abundant; growth selection in yeast, the domain comes from the species named", "details": "Bos taurus", "values": [
      {"variant": "MSAKKSPEELKGIFEKYAAKEGDPNQLSKEELKLLLQTEDPSLLKGPSTLDELFEELDKNGDGEVSFEEFQVLVKKISQ", "note": "[F40D]", "abundance fitness": "-0.099 ± 0.091"},
      {"variant": "MSAKKSPEELKGIFEKYAAKEGDPNQLSKEELKLLLQTELPSLLKGPSTLDELFEELDKNGDGEVSFEEFQVLVKKISQ", "note": "[F40L]", "abundance fitness": "-0.037 ± 0.062"},
      {"variant": "MSAKKSPEELKGIFEKYAAKEGDPNQLSKEELKLLLQTEKPSLLKGPSTLDELFEELDKNGDGEVSFEEFQVLVKKISQ", "note": "[F40K]", "abundance fitness": "-0.218 ± 0.084"},
      {"variant": "MSAKKSPEELKGIFEKYAAKEGDPNQLSKEELKLLLQTEIPSLLKGPSTLDELFEELDKNGDGEVSFEEFQVLVKKISQ", "note": "[F40I]", "abundance fitness": "0.019 ± 0.076"},
      {"variant": "MSAKKSPEELKGIFEKYAAKEGDPNQLSKEELKLLLQTEGPSLLKGPSTLDELFEELDKNGDGEVSFEEFQVLVKKISQ", "note": "[F40G]", "abundance fitness": "-0.155 ± 0.085"},
      {"variant": "MSAKKSPEELKGIFEKYAAKEGDPNQLSKEELKLLLQTEEPSLLKGPSTLDELFEELDKNGDGEVSFEEFQVLVKKISQ", "note": "[F40E]", "abundance fitness": "-0.158 ± 0.094"},
      {"variant": "MSAKKSPEELKGIFEKYAAKEGDPNQLSKEELKLLLQTEAPSLLKGPSTLDELFEELDKNGDGEVSFEEFQVLVKKISQ", "note": "[F40A]", "abundance fitness": "-0.189 ± 0.079"},
      {"variant": "MSAKKSPEELKGIFEKYAAKEGDPNQLSKEELKLLLQTECPSLLKGPSTLDELFEELDKNGDGEVSFEEFQVLVKKISQ", "note": "[F40C]", "abundance fitness": "-0.059 ± 0.082"},
      {"variant": "MSAKKSPEELKGIFEKYAAKEGDPNQLSKEELKLLKQTEFPSLLKGPSTLDELFEELDKNGDGEVSFEEFQVLVKKISQ", "note": "[L36K]", "abundance fitness": "-1.98 ± 0.11"},
      {"variant": "MSAKKSPEELKGIFEKYAAKEGDPNQLSKEELKLLWQTEFPSLLKGPSTLDELFEELDKNGDGEVSFEEFQVLVKKISQ", "note": "[L36W]", "abundance fitness": "-0.076 ± 0.087"},
      {"variant": "MSAKKSPEELKGIFEKYAAKEGDPNQLSKEELKLLSQTEFPSLLKGPSTLDELFEELDKNGDGEVSFEEFQVLVKKISQ", "note": "[L36S]", "abundance fitness": "-0.499 ± 0.063"},
      {"variant": "MSAKKSPEELKGIFEKYAAKEGDPNQLSKEELKLLVQTEFPSLLKGPSTLDELFEELDKNGDGEVSFEEFQVLVKKISQ", "note": "[L36V]", "abundance fitness": "-0.01 ± 0.067"},
      {"variant": "MSAKKSPEELKGIFEKYAAKEGDPNQLSKEELKLLQQTEFPSLLKGPSTLDELFEELDKNGDGEVSFEEFQVLVKKISQ", "note": "[L36Q]", "abundance fitness": "-0.789 ± 0.09"},
      {"variant": "MSAKKSPEELKGIFEKYAAKEGDPNQLSKEELKLLRQTEFPSLLKGPSTLDELFEELDKNGDGEVSFEEFQVLVKKISQ", "note": "[L36R]", "abundance fitness": "-1.92 ± 0.092"},
      {"variant": "MSAKKSPEELKGIFEKYAAKEGDPNQLSKEELKLLYQTEFPSLLKGPSTLDELFEELDKNGDGEVSFEEFQVLVKKISQ", "note": "[L36Y]", "abundance fitness": "-0.209 ± 0.075"},
      {"variant": "MSAKKSPEELKGIFEKYAAKEGDPNQLSKEELKLLTQTEFPSLLKGPSTLDELFEELDKNGDGEVSFEEFQVLVKKISQ", "note": "[L36T]", "abundance fitness": "-0.203 ± 0.065"},
      {"variant": "MSAKKSPEELKGIFEKYAAKEGDPNQLSKEELKLLLQTHFPSLLKGPSTLDELFEELDKNGDGEVSFEEFQVLVKKISQ", "note": "[E39H]", "abundance fitness": "-0.059 ± 0.074"},
      {"variant": "MSAKKSPEELKGIFEKYAAKEGDPNQLSKEELKLLLQTVFPSLLKGPSTLDELFEELDKNGDGEVSFEEFQVLVKKISQ", "note": "[E39V]", "abundance fitness": "-0.304 ± 0.068"},
      {"variant": "MSAKKSPEELKGIFEKYAAKEGDPNQLSKEELKLLLQTKFPSLLKGPSTLDELFEELDKNGDGEVSFEEFQVLVKKISQ", "note": "[E39K]", "abundance fitness": "-0.33 ± 0.091"},
      {"variant": "MSAKKSPEELKGIFEKYAAKEGDPNQLSKEELKLLLQTCFPSLLKGPSTLDELFEELDKNGDGEVSFEEFQVLVKKISQ", "note": "[E39C]", "abundance fitness": "-0.295 ± 0.093"},
      {"variant": "MSAKKSPEELKGIFEKYAAKEGDPNQLSKEELKLLLQTDFPSLLKGPSTLDELFEELDKNGDGEVSFEEFQVLVKKISQ", "note": "[E39D]", "abundance fitness": "-0.16 ± 0.082"},
      {"variant": "MSAKKSPEELKGIFEKYAAKEGDPNQLSKEELKLLLQTQFPSLLKGPSTLDELFEELDKNGDGEVSFEEFQVLVKKISQ", "note": "[E39Q]", "abundance fitness": "-0.21 ± 0.089"},
      {"variant": "MSAKKSPEELKGIFEKYAAKEGDPNQLSKEELKLLLQTPFPSLLKGPSTLDELFEELDKNGDGEVSFEEFQVLVKKISQ", "note": "[E39P]", "abundance fitness": "-1.63 ± 0.097"},
      {"variant": "MSAKKSPEELKGIFEKYAAKEGDPNQLSKEELKLLLQTYFPSLLKGPSTLDELFEELDKNGDGEVSFEEFQVLVKKISQ", "note": "[E39Y]", "abundance fitness": "-0.197 ± 0.075"},
      {"variant": "MSAKKSPEELKGIFEKYAAKEGDPNQLSKEELKLLLQTWFPSLLKGPSTLDELFEELDKNGDGEVSFEEFQVLVKKISQ", "note": "[E39W]", "abundance fitness": "-0.349 ± 0.1"},
      {"variant": "MSAKKSPEELKGIFEKYAAKEGDPNQLSKEELKLLLQTAFPSLLKGPSTLDELFEELDKNGDGEVSFEEFQVLVKKISQ", "note": "[E39A]", "abundance fitness": "-0.515 ± 0.07"},
      {"variant": "MSAKKSPEELKGIFEKYAAKEGDPNQLSKEELKLLLQTMFPSLLKGPSTLDELFEELDKNGDGEVSFEEFQVLVKKISQ", "note": "[E39M]", "abundance fitness": "-0.177 ± 0.087"},
      {"variant": "MSAKKSPEELKGIFEKYAAKEGDPNQLSKEELKLLLQTNFPSLLKGPSTLDELFEELDKNGDGEVSFEEFQVLVKKISQ", "note": "[E39N]", "abundance fitness": "-0.138 ± 0.077"},
      {"variant": "MSAKKSPEELKGIFEKYAAKEGDPNQLSKEELKLLLQTGFPSLLKGPSTLDELFEELDKNGDGEVSFEEFQVLVKKISQ", "note": "[E39G]", "abundance fitness": "-0.809 ± 0.083"},
      {"variant": "MSAKKSPEELKGIFEKYAAKEGDPNQLSKEELKLLLQTRFPSLLKGPSTLDELFEELDKNGDGEVSFEEFQVLVKKISQ", "note": "[E39R]", "abundance fitness": "-0.449 ± 0.076"},
      {"variant": "MSAKKSPEELKGIFEKYAAKEGDPNQLSKEELKLLLQTTFPSLLKGPSTLDELFEELDKNGDGEVSFEEFQVLVKKISQ", "note": "[E39T]", "abundance fitness": "-0.218 ± 0.069"},
      {"variant": "MSAKKSPEELKGIFEKYAAKEGDPNQLSKEELKLLLQTLFPSLLKGPSTLDELFEELDKNGDGEVSFEEFQVLVKKISQ", "note": "[E39L]", "abundance fitness": "-0.207 ± 0.065"},
      {"variant": "MSAKKSPEELKGIFEKYAAKEGDPNQLSKEELKLLLQTSFPSLLKGPSTLDELFEELDKNGDGEVSFEEFQVLVKKISQ", "note": "[E39S]", "abundance fitness": "-0.308 ± 0.065"},
      {"variant": "MSAKKSPEELKGIFEKYAAKEGDPNQLSKEELKLLLQTIFPSLLKGPSTLDELFEELDKNGDGEVSFEEFQVLVKKISQ", "note": "[E39I]", "abundance fitness": "-0.24 ± 0.078"},
      {"variant": "MSAKKSPEELKGIFEKYAAKEGDPNQLSKEELKLLLQTFFPSLLKGPSTLDELFEELDKNGDGEVSFEEFQVLVKKISQ", "note": "[E39F]", "abundance fitness": "-0.345 ± 0.08"}
    ]}
  ]
}
